Measured values as given in US20190142868A1, “METHODS OF TREATING DISEASES ASSOCIATED WITH ILC3 CELLS” (Instituto de Medicina Moleccular, priority 2016, published 2019).

Columns and labels:
RET = conditions: cited from earlier work; for RET autophosphorylation: Tokugawa et al. 2003 (XIB4035, GDNF), Akeno-Stuart et al. 2007 (AST 487)
[1] = tested on: neurosphere-derived glial cells; test: Activation of neurosphere-derived glial cells, alone or co-cultured with ILC3; type: cell-based, mice; conditions: for innate Il22 in ILC3 co-cultured with glial cells: 24 hours of co-culture, MYD88 dependent; for GFL expression in glial cells: activation of neurosphere-derived glial cells
Description: Neurosphere-derived glial cells were obtained as previously described^60. Briefly, total intestines from E14.5 C57BL/6J and Myd88^−/− mice were digested with collagenase D (0.5 mg/mL; Roche) and DNase I (0.1 mg/mL; Roche) in DMEM/F-12, GlutaMAX, supplemented with 1% hepes, streptomycin/penicillin and 0.1% β-mercaptoethanol (Gibco) for approximately 30 minutes at 37° C. under gentle agitation. Cells were cultured during 1 week in a CO2 incubator at 37° C. in DMEM/F-12, GlutaMAX™, streptomycin and penicillin and 0.1% P3-mercaptoethanol (Gibco) supplemented with B27 (Gibco), EGF (Gibco) and FGF2 (Gibco) 20 ng/mL. After 1 week of culture cells were treated with 0.05% trypsin (Gibco), transferred into PDL (Sigma-Aldrich) coated plates and culture in DMEM supplemented with 10% FBS, 1% hepes, glutamine, streptomycin and penicillin and 0.1% β-mercaptoethanol (Gibco) until confluence. Glial cells were activated with TLR2 (5 μg/ml) (Pam3CSK4), TLR3 ([…]) (PolyI:C), TLR4 (50 ng/ml) (LPS), TLR9 ([…]) (DsDNA-EC) ligands from Invivogen and IL-1β (10 ng/mL) (401ML005), IL-18 (50 ng/mL) (B002-5), IL-33 (0.1 ng/mL) (3626ML) recombinant proteins from R&D Systems. Cells were also co-cultured with purified ILC3 from WT and Illb deficient mice. IL-22 expression in glial-ILC3 co-cultures upon TLR4 activation was also performed using GDNF ([…]) (AB-212-NA), NRTN ([…]) (AF-387sp) and ARTN (0.3 μg/mL) (AF-1085-sp) blocking antibodies. Cells were analysed after 24 hours of co-culture.

Row | Molecule | activation of downstream effectors of RET (RET; Akeno-Stuart et al. 2007) | RET autophosphorylation (RET) | innate Il22 in ILC3 co-cultured with glial cells [1] | GFL expression in glial cells [1]
1 | CCN1CCN(Cc2ccc(NC(=O)Nc3ccc(Oc4cc(NC)ncn4)cc3)cc2C(F)(F)F)CC1 [AST 487, 1-[4-[(4-ethylpiperazin-1-yl)methyl]-3-(trifluoromethyl)phenyl]-3-[4-[6-(methylamino)pyrimidin-4-yl]oxyphenyl]urea] | inhibit | inhibit |  | 
2 | CCN(CC)CCCC(C)Nc1cc(/C=C/c2ccccc2Cl)nc2cc(Cl)ccc12 (centres unmarked) [XIB4035, N(4)-(7-chloro-2-[(E)-2-(2-chloro-phenyl)-vinyl]-quinolin-4-yl)-N(1),N(1)-diethyl-pentane-1,4-diamine] |  | induced |  | 
3 | IL-1β: recombinant protein from R&D Systems (401ML005), alarmin (protein, UniProt P10749 118-269, looked up) Interleukin-1 beta: VPIRQLHYRLRDEQQKSLVLSDPYELKALHLNGQNINQQVIFSMSFVQGEPSNDKIPVALGLKGKNLYLSCVMKDGTPTLQLESVDPKQYPKKKMEKRFVFNKIEVKSKVEFESAEFPNWYISTSQAEHKPVFLGNNSGQDIIDFTMESVSS |  |  | induced robust | efficiently controlled
4 | IL-33: recombinant protein from R&D Systems (3626ML), alarmin (protein, UniProt Q8BVZ5 1-266, looked up) Interleukin-33: MRPRMKYSNSKISPAKFSSTAGEALVPPCKIRRSQQKTKEFCHVYCMRLRSGLTIRKETSYFRKEPTKRYSLKSGTKHEENFSAYPRDSRKRSLLGSIQAFAASVDTLSIQGTSLLTQSPASLSTYNDQSVSFVLENGCYVINVDDSGKDQEQDQVLLRYYESPCPASQSGDGVDGKKLMVNMSPIKDTDIWLHANDKDYSVELQRGDVSPPEQAFFVLHKKSSDFVSFECKNLPGTYIGVKDNQLALVEEKDESCNNIMFKLSKI |  |  | induced robust | efficiently controlled
5 | GDNF: Glial cell-derived neurotrophic factor, a GFRα1 ligand (protein, UniProt P39905 78-211, looked up) Glial cell line-derived …: SPDKQMAVLPRRERNRQAAAANPENSRGKGRRGQRGKNRGCVLTAIHLNVTDLGLGYETKEELIFRYCSGSCDAAETTYDKILKNLSRNRRLVSDKVGQACCRPIAFDDDLSFLDDNLVYHILRKHSAKRCGCI |  | induced |  | 
